Measurements from article PMC4067516 (Journal of cell science, 2008).

Target: β1 integrin (human (endogenous in EA.hy926), UniProt P05556 21-798)
Test: co-IP

Sequence of β1 integrin (P05556 21-798): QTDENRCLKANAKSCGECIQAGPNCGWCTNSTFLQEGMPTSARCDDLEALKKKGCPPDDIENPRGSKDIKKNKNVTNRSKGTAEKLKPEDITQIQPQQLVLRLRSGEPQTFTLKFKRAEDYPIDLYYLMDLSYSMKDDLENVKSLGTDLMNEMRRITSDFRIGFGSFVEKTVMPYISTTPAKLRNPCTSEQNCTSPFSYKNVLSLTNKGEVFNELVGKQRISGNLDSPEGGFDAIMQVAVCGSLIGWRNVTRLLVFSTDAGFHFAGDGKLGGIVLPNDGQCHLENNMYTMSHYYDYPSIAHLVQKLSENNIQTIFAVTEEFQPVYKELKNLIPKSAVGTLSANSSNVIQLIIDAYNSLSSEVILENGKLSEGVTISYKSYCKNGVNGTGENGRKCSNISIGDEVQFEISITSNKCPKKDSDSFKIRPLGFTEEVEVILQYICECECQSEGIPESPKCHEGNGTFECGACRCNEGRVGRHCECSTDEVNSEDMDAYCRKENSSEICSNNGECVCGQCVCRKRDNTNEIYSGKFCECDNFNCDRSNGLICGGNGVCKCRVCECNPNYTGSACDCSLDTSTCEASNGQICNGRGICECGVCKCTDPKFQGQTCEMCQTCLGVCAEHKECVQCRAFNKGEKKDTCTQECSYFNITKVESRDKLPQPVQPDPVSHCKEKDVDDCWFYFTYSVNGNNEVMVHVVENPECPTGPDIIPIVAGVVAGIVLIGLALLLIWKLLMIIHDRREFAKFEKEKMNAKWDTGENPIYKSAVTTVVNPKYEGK

- normalized CB1R ratio without versus with anandamide (2 mM Ca2+): 1.03 ± 0.04
B1: cannabinoid 1 receptor (receptor, human (endogenous in EA.hy926), UniProt P21554 1-472, looked up)
chain: MKSILDGLADTTFRTITTDLLYVGSNDIQYEDIKGDMASKLGYFPQKFPLTSFRGSPFQEKMTAGDNPQLVPADQVNITEFYNKSLSSFKENEENIQCGENFMDIECFMVLNPSQQLAIAVLSLTLGTFTVLENLLVLCVILHSRSLRCRPSYHFIGSLAVADLLGSVIFVYSFIDFHVFHRKDSRNVFLFKLGGVTASFTASVGSLFLTAIDRYISIHRPLAYKRIVTRPKAVVAFCLMWTIAIVIAVLPLLGWNCEKLQSVCSDIFPHIDETYLMFWIGVTSVLLLFIVYAYMYILWKAHSHAVRMIQRGTQKSIIIHTSEDGKVQVTRPDQARMDIRLAKTLVLILVVLIICWGPLLAIMVYDVFGKMNKLIKTVFAFCSMLCLLNSTVNPIIYALRSKDLRHAFRSMFPSCEGTAQPLDNSMGDSDCLHKHANNAASVHRAAESCIKSTVKIAKVTMSVSTDTSAEAL
